Tests used:
human HCT116 tumor cells = test: HCT116 xenograft tumor growth, REGN421 with irinotecan (Example 6); type: in vivo, mouse; conditions: REGN421 2 mg/kg sc (6 mg/kg total dose)
Description: Each mouse was implanted subcutaneously (sc) with 5×10^6 human HCT116 tumor cells. After the tumors were established in the mice (tumor size of ˜150 mm^3, 15 days after implantation), tumors were measured and randomized. The mice were then treated with hFc, REGN421, irinotecan or combination of REGN421 and irinotecan. A total of 30 mice were divided into 6 groups (n=5 per cohort). The first group was treated sc with hFc at 2 mg/kg; the second group was treated sc with REGN421 at 2 mg/kg; the third and fourth groups were treated ip with irinotecan at 7.5 and 25 mg/kg, respectively; the fifth group was treated sc with REGN421 at 2 mg/kg and ip with irinotecan at 7.5 mg/kg; and the sixth group was treated sc with REGN421 at 2 mg/kg and ip with irinotecan at 25 mg/kg. REGN421 was administered every 3-4 days starting on day 15 and mice received three doses total. Irinotecan was administered every 3-4 days starting on day 15 and mice received three doses total.
(§1) To assess the effects of REGN421 and irinotecan as single agents or in combination treatments, the changes in tumor size (volume) are measured, starting three days before the initial REGN421 treatment, and then on the day of each agent treatment (days 15, 19, 22) and thereafter every 3-4 days until tumors reach ˜600 mm^3 in size. In vivo tumor size is calculated using the formula (length×width^2)/2.

[1] = system: human HCT116 tumor cells (CRC); test: HCT116 colorectal xenograft tumor growth, REGN421 with 5-FU (Example 5); type: in vivo, mouse; conditions: REGN421 2 mg/kg sc (6 mg/kg total dose)
Description: The effect of anti-Dll4 Ab (REGN421) in combination with 5-FU on tumor growth was evaluated on tumors implanted in humanized Dll4 SCID mice. Each mouse was implanted subcutaneously (sc) with 5×10^6 human HCT116 tumor cells (CRC). After the tumors were established in the mice (tumor size of ˜150 mm^3, 22 days after implantation), tumors were measured and randomized. The mice were then treated with hFc, REGN421, 5-FU or combination of REGN421 and 5-FU. A total of 30 mice were divided into 6 groups (n=5 per cohort). The first group was treated sc with hFc at 2 mg/kg; the second group was treated sc with REGN421 at 2 mg/kg; the third and fourth groups were treated ip with 5-FU at 15 and 25 mg/kg, respectively; the fifth group was treated sc with REGN421 at 2 mg/kg and ip with 5-FU at 15 mg/kg; and the sixth group was treated sc with REGN421 at 2 mg/kg and ip with 5-FU at 25 mg/kg. REGN421 was administered every 3-4 days starting on day 22 and mice received three doses total. 5-FU was administered every 3-4 days starting on day 22 and mice received three doses total.
as §1, with “5-FU” for “irinotecan”, “combination,” for “combination treatments,”, “were” for “are”, “beginning” for “starting”, “22, 26, 29)” for “15, 19, 22)”, “(length×width^2)/2 (FIG. 3 and Table 5).” for “(length×width^2)/2.”

B1: REGN421: anti-hDll4 antibody comprising HCVR/LCVR combination of SEQ ID NO:116/118 (antibody, V domains shown)
VH: QVQLVESGGGVVQPGRSLRLSCAASGFTFSSYGMHWVRQAPGKGLEWVSFLWYDGTNKNYVESVKGRFTISRDNSKNMLYLEMNSLRAEDTAVYYCARDHDFRSGYEGWFDPWGQGTLVTVSS
VL: EIVLTQSPATLSLSPGERATLSCRASQSVSSYLAWYQQKPGQAPRLLIYDASNRATGIPARFSGSGSGTDFTLTISSLEPEDFAVYYCQHRSNWPPTFGGGTKVEIK
TGD (human HCT116 tumor cells): 9 days | TGD [1]: 6 days

— patent US8840886B2, “Method of treating cancer with DLL4 antagonist and chemotherapeutic agent” (Regeneron Pharmaceuticals, Inc., priority 2009, dated 2014)
